Measurements published in publication PMC4860835, “ALG-2 activates the MVB sorting function of ALIX through relieving its intramolecular interaction” (Cell Discovery, 2015).

Target: T1, ALIX (endogenous, HEK293 cells) (human (endogenous in HEK293), UniProt Q8WUM4 1-868)
T1 construct: also called cytosolic ALIX; AIP1
T1 sequence (looked up): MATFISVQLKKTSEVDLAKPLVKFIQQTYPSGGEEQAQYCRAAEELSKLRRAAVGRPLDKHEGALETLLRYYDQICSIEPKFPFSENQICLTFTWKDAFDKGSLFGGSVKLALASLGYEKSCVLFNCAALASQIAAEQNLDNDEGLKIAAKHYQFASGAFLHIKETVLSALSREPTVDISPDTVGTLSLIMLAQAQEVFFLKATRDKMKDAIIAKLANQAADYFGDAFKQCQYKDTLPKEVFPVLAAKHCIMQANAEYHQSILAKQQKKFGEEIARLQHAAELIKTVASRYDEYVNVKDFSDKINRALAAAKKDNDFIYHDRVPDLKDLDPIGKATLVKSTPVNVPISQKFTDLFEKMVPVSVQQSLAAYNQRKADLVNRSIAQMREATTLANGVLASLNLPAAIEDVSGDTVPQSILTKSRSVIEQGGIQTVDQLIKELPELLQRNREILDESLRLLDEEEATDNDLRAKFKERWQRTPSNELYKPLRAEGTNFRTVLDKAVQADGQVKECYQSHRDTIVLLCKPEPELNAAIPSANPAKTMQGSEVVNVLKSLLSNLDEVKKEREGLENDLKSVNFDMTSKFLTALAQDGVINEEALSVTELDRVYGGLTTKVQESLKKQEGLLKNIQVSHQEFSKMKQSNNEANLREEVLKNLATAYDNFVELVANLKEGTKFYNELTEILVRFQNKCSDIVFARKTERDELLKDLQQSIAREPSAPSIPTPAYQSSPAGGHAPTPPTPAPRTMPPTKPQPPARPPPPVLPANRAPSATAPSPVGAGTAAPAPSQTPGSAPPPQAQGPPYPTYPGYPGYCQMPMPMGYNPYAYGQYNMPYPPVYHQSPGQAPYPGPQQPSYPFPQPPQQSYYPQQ
Experiment: co-IP; 0.1% Triton X-100-solubilized HEK293 cell lysates, 10 μM CaCl2 added; control and EGF-stimulated cells (Supplementary Figure S3A)
Settings: partners not purified

fold more ALG-2 interacting with ALIX in EGF-stimulated cells than in control cells: 3.5 fold
B1: ALG-2 (endogenous, HEK293 cells) (natural protein, human (endogenous in HEK293), UniProt O75340 1-191, looked up)
chain: MAAYSYRPGPGAGPGPAAGAALPDQSFLWNVFQRVDKDRSGVISDTELQQALSNGTWTPFNPVTVRSIISMFDRENKAGVNFSEFTGVWKYITDWQNVFRTYDRDNSGMIDKNELKQALSGFGYRLSDQFHDILIRKFDRQGRGQIAFDDFIQGCIVLQRLTDIFRRYDTDQDGWIQVSYEQYLSMVFSIV
notes: also called endogenous ALG-2; apoptosis-linked gene-2 product; source: endogenous, HEK293 membrane and soluble fractions and 0.1% Triton X-100 lysate
